Source: patent US20240309112A1 (MITSUBISHI TANABE PHARMA, published 2024)
Substitutions are numbered along the chain they refer to. Each block holds one binder with its values, some of them ahead of it.

Legend:
[1] = target: Human PAD4 (enzyme inhibition assays) (human, UniProt Q9UM07 1-663, limits assumed); assay: cell-based or functional assay
[2] = target: T1, biotin-labeled human PAD4 protein (human, UniProt Q9UM07 1-663, biotin on the Avi tag (biotin ligase BirA)); assay: SPR, Biacore T200, biotin-labeled human PAD4 captured on chip, IgG as analyte
T1 construct: also called Avi tag-human PAD4; biotin-labeled PAD4; not shown: Avi tag left on the N-terminal side after the GST tag was cleaved with PreScission Protease
T1 sequence (Q9UM07 whole entry): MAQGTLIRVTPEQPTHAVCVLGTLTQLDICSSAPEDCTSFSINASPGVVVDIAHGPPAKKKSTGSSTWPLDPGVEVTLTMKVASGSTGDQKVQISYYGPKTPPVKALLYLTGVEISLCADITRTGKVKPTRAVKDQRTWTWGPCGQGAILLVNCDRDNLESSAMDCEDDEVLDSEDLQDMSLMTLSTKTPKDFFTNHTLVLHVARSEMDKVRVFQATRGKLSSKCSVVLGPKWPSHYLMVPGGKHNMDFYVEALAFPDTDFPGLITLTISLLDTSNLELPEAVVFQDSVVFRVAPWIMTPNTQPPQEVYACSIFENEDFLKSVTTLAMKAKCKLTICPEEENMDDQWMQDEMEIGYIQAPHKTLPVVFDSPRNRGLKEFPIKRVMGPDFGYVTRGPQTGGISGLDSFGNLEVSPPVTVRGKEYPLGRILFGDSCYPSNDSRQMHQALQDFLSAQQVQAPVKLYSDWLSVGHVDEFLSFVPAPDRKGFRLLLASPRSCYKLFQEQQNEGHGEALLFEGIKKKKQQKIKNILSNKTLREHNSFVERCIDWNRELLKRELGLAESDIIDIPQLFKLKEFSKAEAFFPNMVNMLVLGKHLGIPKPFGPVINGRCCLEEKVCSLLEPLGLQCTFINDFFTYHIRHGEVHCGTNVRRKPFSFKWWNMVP

[3] = target: T1, biotin-labeled human PAD4 protein; assay: SPR, Biacore T200, biotin-labeled human PAD4 captured on chip, antibody as analyte, single-cycle, 1:1 model
Description: A biotin-labeled human PAD4 protein was immobilized on a sensor chip using a Biotin Capture Kit (GE Healthcare). The PAD4 protein was prepared to 0.5 μg/mL using HBS-EP+ and used as a ligand solution. The ligand solution was added to a flow cell at a flow rate of 10 μL/min for 30 seconds, and then HBS-EP+ was added for 60 seconds. A flow cell to which no ligand solution was added was used as a reference cell. The test antibody was prepared from several hundred pM to several nM using HBS-EP+ and used as an analyte solution. Further, a running buffer solution was used as a blank solution. The blank solution or the analyte solution was added at a flow rate of 30 μL/min for 180 seconds using a single-cycle method, and a dissociation time was 1200 seconds. A sensorgram of the reference cell is subtracted from a sensorgram of the flow cell to which the ligand was added when the blank solution or the analyte solution was added, and further, a sensorgram to which the blank solution was added was subtracted from the sensorgram to which the analyte solution was added, and the result was used for analysis. Binding parameters were calculated using a 1:1 binding model using Biacore T200 Evaluation software (GE Healthcare). […] The dissociation constants of the antibodies 2-1-47, 3-1-39, 3-2-37, and 4-2-25 with improved complementarity determining regions with respect to human PAD4 protein were respectively 31, 48, 73, and 20 pM.

[4] = target: T2, human PAD4 (Cayman Chemical company, Cat 10500) (human, UniProt Q9UM07 1-663); assay: SPR, Biacore T200, antibody captured on Protein A chip, 50 nM human PAD4 as analyte; antigen binding amount divided by antibody binding amount
T2 construct: Bought protein
T2 sequence (Q9UM07 whole entry): as above
Description: In order to investigate an antigen-binding ability after the storage, antigen-binding activity measurements were performed using a surface plasmon resonance apparatus Biacore T200 (GE Healthcare). Cryopreserved test antibodies and test antibodies stored at 4° C. or 40° C. for 4 weeks were prepared to 10 μg/mL using a running buffer solution HBS-EP+. Using a Series S Sensorchip Protein A (GE Healthcare), a test antibody solution was added to a flow cell 2 at a flow rate of 10 μL/min for 60 seconds and immobilized on a sensor chip. A flow cell 1 was used as a reference cell. A binding amount 55 seconds after the completion of the addition of the test antibody to the flow cell 2 was subtracted from a binding amount of the flow cell 1 to obtain an antibody binding amount. Next, human PAD4 (Cayman Chemical company, Cat 10500) was prepared to 50 nM using HBS-EP+ and used as an analyte solution. The analyte solution was added at a flow rate of 30 μL/min for 120 seconds to obtain a sensorgram of a bound phase. A binding amount 5 seconds before the completion of the addition of the analyte solution to the flow cell 2 was subtracted from a binding amount of the flow cell 1 to obtain an antigen binding amount. Subsequently, a running buffer solution was added for 180 seconds to obtain a sensorgram of a dissociated phase. The measurements were performed at 25° C. The antibody binding amount and the antigen binding amount were calculated using a data analysis program (GE Healthcare, Biacore T200 Evaluation Software v3.1), and the antigen binding amount under each condition was divided by the antibody binding amount to obtain a relative antigen binding amount. There was no change between the relative antigen-binding amount of a cryopreserved test antibody and the relative antigen-binding amount of a test antibody stored at 4° C. The relative antigen-binding amounts of various test antibodies stored at 40° C. for 4 weeks were compared to the relative antigen-binding amounts of the test antibodies stored at 4° C. for 4 weeks, and the antigen-binding activities were determined.

[5] = target: T1, biotin-labeled human PAD4 protein; assay: SPR, Biacore T200, biotin-labeled human PAD4 captured on chip, antibody as analyte, single-cycle, 1:1 model; remark: listed apart in the source
Description: Binding affinities of the test antibodies G8 and G8ss with respect to human PAD4 proteins were determined by measuring a dissociation constant (KD) in HBS-EP+ using a surface plasmon resonance apparatus Biacore T200 (GE Healthcare). A biotin-labeled human PAD4 protein was immobilized on a sensor chip using a Biotin Capture Kit (GE Healthcare). The PAD4 protein was prepared to 0.25 μg/mL using HBS-EP+ and used as a ligand solution. The ligand solution was added to a flow cell at a flow rate of […] for 30 seconds, and then HBS-EP+ was added for 60 seconds. A flow cell to which no ligand solution was added was used as a reference cell. The test antibody was prepared from several hundred pM to several nM using HBS-EP+ and used as an analyte solution. Further, a running buffer solution was used as a blank solution. The blank solution or the analyte solution was added at a flow rate of 30 μL/min for 180 seconds using a single-cycle method, and a dissociation time was 1200 seconds. A sensorgram of the reference cell is subtracted from a sensorgram of the flow cell to which the ligand was added when the blank solution or the analyte solution was added, and further, a sensorgram to which the blank solution was added was subtracted from the sensorgram to which the analyte solution was added, and the result was used for analysis. Binding parameters were calculated using a 1:1 binding model using Biacore T200 Evaluation software (GE Healthcare).

Sequence of Human PAD4 (enzyme inhibition assays) (Q9UM07 whole entry): as above

IC50, human PAD4 enzyme inhibitory activity (citrullination of BAEE, colorimetric) [1]: 9.6 nM | Kd [2]: 0.0175 nM | koff [2]: 0.000164 s⁻¹ | kon [2]: 9.39e+06 M⁻¹ s⁻¹
B1: Lib2(4R)-1-47 (antibody, V domains shown)
VH: EVQLLESGGGLVQPGGSLRLSCAASGFTFSTYAMGWVRQAPGKGLEFVAAIRNDGSWTGYGTPYKTRFTISRDNSKNTLYLQMNSLRAEDTAVYYCAKYTGSSGGSIGAWGQGTLVTVSS
VL: SYELTQPPSVSVSPGQTARITCSGGNRNYYYGWYQQKPGQAPVTVIYANDKRPSGIPERFSGSNSGSTTTLTISGVQAEDEADYYCGTATTGKYVFGGGTKLTVLG
notes: Tested as full-length antibody (human IgG1/human k) from Expi293; also called Lib(4R)-1-47

IC50, human PAD4 enzyme inhibitory activity (citrullination of BAEE, colorimetric) [1]: 12.2 nM | Kd [3]: 0.031 nM | koff [3]: 0.000507 s⁻¹ | kon [3]: 1.61e+07 M⁻¹ s⁻¹ | antigen-binding activity after storage at 40° C. for 4 weeks, relative to storage at 4° C. [4]: 95.6%
B2: anti-PAD4 antibody 2-1-47 (antibody, human IgG1, lambda, V domains shown)
VH: B1 VH with N84S
VL: B1 VL
notes: Lib2(4R)-1-47 with the 84th asparagine of the heavy chain substituted with serine; full-length IgG from ExpiCHO

IC50, human PAD4 enzyme inhibitory activity (citrullination of BAEE, colorimetric) [1]: 8.3 nM | Kd [2]: 0.0158 nM | koff [2]: 0.000202 s⁻¹ | kon [2]: 1.28e+07 M⁻¹ s⁻¹
B3: Lib2(5R)-2-25 (antibody, human IgG1, lambda, V domains shown)
VH: B1 VH with G61P, T62P, Y64L, T66G
VL: B1 VL with T90Y
notes: Tested as full-length antibody (human IgG1/human k) from Expi293

IC50, human PAD4 enzyme inhibitory activity (citrullination of BAEE, colorimetric) [1]: 8.8 nM | Kd [3]: 0.048 nM | koff [3]: 0.000626 s⁻¹ | kon [3]: 1.3e+07 M⁻¹ s⁻¹ | antigen-binding activity after storage at 40° C. for 4 weeks, relative to storage at 4° C. [4]: 93.9%
B4: anti-PAD4 antibody 3-1-39 (antibody, human IgG1, lambda, V domains shown)
VH: B1 VH with Y60T, G61S, T62V, P63N, Y64A, N84S
VL: B1 VL
notes: Lib1(6R)-1-39 with the 84th asparagine of the heavy chain substituted with serine; full-length IgG from ExpiCHO

IC50, human PAD4 enzyme inhibitory activity (citrullination of BAEE, colorimetric) [1]: 8.7 nM | Kd [2]: 0.0183 nM | koff [2]: 0.000108 s⁻¹ | kon [2]: 5.9e+06 M⁻¹ s⁻¹
B5: Lib1(6R)-1-39 (antibody, human IgG1, lambda, V domains shown)
VH: B1 VH with Y60T, G61S, T62V, P63N, Y64A
VL: B1 VL
notes: as for B3

IC50, human PAD4 enzyme inhibitory activity (citrullination of BAEE, colorimetric) [1]: 13.4 nM | Kd [2]: 0.0358 nM | koff [2]: 0.000361 s⁻¹ | kon [2]: 1.01e+07 M⁻¹ s⁻¹
B6: Lib1(6R)-2-37 (antibody, human IgG1, lambda, V domains shown)
VH: B1 VH with Y60I, T62Y, P63N, Y64Q, T66S, A97G
VL: B1 VL with T90L
notes: as for B3

IC50, human PAD4 enzyme inhibitory activity (citrullination of BAEE, colorimetric) [1]: 20.3 nM | Kd [5]: 0.276 nM | koff [5]: 0.00176 s⁻¹ | kon [5]: 6.37e+06 M⁻¹ s⁻¹ | Kd [3]: 0.199 nM | koff [3]: 0.00122 s⁻¹ | kon [3]: 6.15e+06 M⁻¹ s⁻¹ | antigen-binding activity after storage at 40° C. for 4 weeks, relative to storage at 4° C. [4]: 82.2%
B7: humanized anti-PAD4 antibody G8ss (antibody, human IgG1, lambda, V domains shown)
VH: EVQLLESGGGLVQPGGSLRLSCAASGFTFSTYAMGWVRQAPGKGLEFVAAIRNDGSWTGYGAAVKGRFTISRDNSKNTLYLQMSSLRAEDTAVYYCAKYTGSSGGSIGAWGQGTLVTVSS
VL: B1 VL with T90D
notes: G8 with the 84th asparagine of the heavy chain substituted with serine; full-length IgG; also called test antibody G8ss

IC50, human PAD4 enzyme inhibitory activity (citrullination of BAEE, colorimetric) [1]: 21.6 nM | Kd [2]: 0.208 nM | koff [2]: 0.00146 s⁻¹ | kon [2]: 7.03e+06 M⁻¹ s⁻¹ | Kd [5]: 0.214 nM | koff [5]: 0.00165 s⁻¹ | kon [5]: 7.7e+06 M⁻¹ s⁻¹
B8: humanized anti-PAD4 antibody G8 (antibody, human IgG1, lambda, V domains shown)
VH: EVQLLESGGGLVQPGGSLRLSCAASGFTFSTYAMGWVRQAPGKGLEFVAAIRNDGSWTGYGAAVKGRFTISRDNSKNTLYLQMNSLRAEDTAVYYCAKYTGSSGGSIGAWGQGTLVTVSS
VL: B1 VL with T90D
notes: Full-length IgG, described in WO 2016/143753; also called test antibody G8; parent clone G8

IC50, human PAD4 enzyme inhibitory activity (citrullination of BAEE, colorimetric) [1]: 7.6 nM | Kd [3]: 0.02 nM | koff [3]: 0.000299 s⁻¹ | kon [3]: 1.47e+07 M⁻¹ s⁻¹ | antigen-binding activity after storage at 40° C. for 4 weeks, relative to storage at 4° C. [4]: 97%
B9: anti-PAD4 antibody 4-2-25 (antibody, human IgG1, lambda, V domains shown)
VH: B1 VH with G61P, T62P, Y64L, T66G, N84S
VL: B1 VL with T90Y
notes: Lib2(5R)-2-25 with the 84th asparagine of the heavy chain substituted with serine; full-length IgG from ExpiCHO

IC50, human PAD4 enzyme inhibitory activity (citrullination of BAEE, colorimetric) [1]: 15.3 nM | Kd [3]: 0.073 nM | koff [3]: 0.000617 s⁻¹ | kon [3]: 8.51e+06 M⁻¹ s⁻¹ | antigen-binding activity after storage at 40° C. for 4 weeks, relative to storage at 4° C. [4]: 94.7%
B10: anti-PAD4 antibody 3-2-37 (antibody, human IgG1, lambda, V domains shown)
VH: B1 VH with Y60I, T62Y, P63N, Y64Q, T66S, N84S, A97G
VL: B1 VL with T90L
notes: Lib1(6R)-2-37 with the 84th asparagine of the heavy chain substituted with serine; full-length IgG from ExpiCHO
